Source: patent publication US20080064052A1, “Crystal of a Receptor-Ligand Complex and methods of use” (priority 2006, published 2008)

B1: LFSP-RAW peptide (LFSPNGPIARAW) (peptide)
peptide: LFSPNGPIARAW
notes: TNYL-RAW without Thr-P1, Asn-P2 and Tyr-P3
B2: TNYL-RAW peptide (TNYLFSPNGPIARAW) (peptide)
peptide: TNYLFSPNGPIARAW
notes: Synthetic 15-mer (Biopeptide, Inc.); Peptide positions are printed as P1 to P15; also called antagonistic peptide

Tests used:
[1] = biological target: T1, mouse EphB4 ectodomain Fc fusion protein (mouse EphB4-Fc-His, R&D Systems) (mouse, UniProt P54761 16-539); test: competition ELISA: inhibition of mouse ephrin-B2 AP binding to immobilized mouse EphB4 ectodomain Fc
T1 construct: extracellular domain; also called murine EphB4; not shown: Fc part of a bought fusion protein; His tag of the bought protein
T1 sequence (looked up): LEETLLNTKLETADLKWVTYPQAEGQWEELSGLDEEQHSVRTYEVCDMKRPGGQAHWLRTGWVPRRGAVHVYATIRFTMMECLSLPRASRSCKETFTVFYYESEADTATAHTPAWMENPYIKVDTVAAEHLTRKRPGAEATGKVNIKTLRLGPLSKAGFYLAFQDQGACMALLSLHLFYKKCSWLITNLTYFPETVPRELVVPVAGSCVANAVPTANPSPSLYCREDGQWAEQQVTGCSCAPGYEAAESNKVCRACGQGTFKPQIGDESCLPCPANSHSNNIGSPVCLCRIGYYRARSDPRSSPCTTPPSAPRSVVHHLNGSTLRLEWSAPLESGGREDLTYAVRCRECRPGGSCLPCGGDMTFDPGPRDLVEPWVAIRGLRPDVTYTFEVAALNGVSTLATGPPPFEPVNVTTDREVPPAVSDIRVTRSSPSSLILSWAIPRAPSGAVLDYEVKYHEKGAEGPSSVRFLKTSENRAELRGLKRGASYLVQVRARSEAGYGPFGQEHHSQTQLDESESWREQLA
Description: (§1) The ability of peptides to compete the binding of mouse ephrin-B2 alkaline phosphatase to immobilized mouse EphB4-Fc-His (R&D Systems) was measured by ELISA as previously described (Koolpe et al., 2005).

[2] = biological target: T2, human EphB4 ephrin-binding domain, EphB4 (17-196) (human, UniProt P54760 17-196); test: ITC at 25 °C
T2 sequence: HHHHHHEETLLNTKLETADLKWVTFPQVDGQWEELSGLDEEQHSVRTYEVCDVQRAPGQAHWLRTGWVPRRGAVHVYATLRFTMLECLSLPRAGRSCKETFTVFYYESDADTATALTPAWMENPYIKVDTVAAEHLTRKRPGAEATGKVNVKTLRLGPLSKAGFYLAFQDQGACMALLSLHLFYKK
Description: (§2) Experiments were performed at 25° C. in 50 mM Tris pH 7.8, 150 mM NaCl, 1 mM CaCl₂.
(§3) Isothermal titration calorimetry and ELISA experiments: EphB4and ephrin-B2 were either dialyzed or buffer exchanged into 50 mM Tris-Cl (pH 7.8 at 25° C.), 150 mM NaCl, 1 mM CaCl₂, prior to use in calorimetry experiments. Peptides were dissolved into the same buffer used for the dialysis of EphB4. The concentration of EphB4, ephrin-B2 and the peptides was determined by measuring the A₂₈₀ and using the theoretical-extinction coefficient (Gill and von Hippel, 1989). ITC experiments were performed with a Microcal MCS ITC at 25° C. Following an initial injection of 2 μl, titrations were performed by making 20 13 μl injections of peptide into EphB4 in the sample cell to produce an approximate final 2:1 ratio of injectant to sample in the cell. […] Corrections for heats of dilution for the peptides and ephrin-B2 were determined by performing titrations of peptide or ephrin-B2 solutions into buffer. […] Titration data were analyzed using Origin ITC software (Version 5.0, Microcal Software Inc.) and curves were fit to a single binding site model (Wiseman et al., 1989). […] A lower limit for the binding constant was determined by performing a titration in which the sample cell contained 30 μM EphB4 and the injection syringe contained a 1.45 mM solution of the peptide, producing a final ratio of peptide to EphB4 of 10:1.

[3] = biological target: T2, human EphB4 ephrin-binding domain, …; test: ITC at 25 °C, peptide injected into human EphB4 (17-196)
Description: Isothermal titration calorimetry and ELISA experiments: EphB4and ephrin-B2 were either dialyzed or buffer exchanged into 50 mM Tris-Cl (pH 7.8 at 25° C.), 150 mM NaCl, 1 mM CaCl₂, prior to use in calorimetry experiments. Peptides were dissolved into the same buffer used for the dialysis of EphB4. The concentration of EphB4, ephrin-B2 and the peptides was determined by measuring the A₂₈₀ and using the theoretical-extinction coefficient (Gill and von Hippel, 1989). ITC experiments were performed with a Microcal MCS ITC at 25° C. Following an initial injection of 2 μl, titrations were performed by making 20 13 μl injections of peptide into EphB4 in the sample cell to produce an approximate final 2:1 ratio of injectant to sample in the cell. For most titrations the sample cell contained 15 μM EphB4 and the injection syringe contained a 200 μM solution of the peptide. Titrations with ephrin-B2 contained 13 μM EphB4 in the sample cell and 290 μM ephrin-B2 in the syringe. Prior to loading the sample cell, EphB4 was centrifuged at 18,000 g for 5 min at 4° C. to remove aggregates and degassed for 5 minutes at room temperature. Corrections for heats of dilution for the peptides and ephrin-B2 were determined by performing titrations of peptide or ephrin-B2 solutions into buffer. Dilution data were fit to a line and subtracted from the corresponding titration data. Titration data were analyzed using Origin ITC software (Version 5.0, Microcal Software Inc.) and curves were fit to a single binding site model (Wiseman et al., 1989). […] A lower limit for the binding constant was determined by performing a titration in which the sample cell contained 30 μM EphB4 and the injection syringe contained a 1.45 mM solution of the peptide, producing a final ratio of peptide to EphB4 of 10:1. The data was fit assuming a stoichiometry of 1 and at least 60% saturation of binding at the final peptide concentration (Turnbull and Daranas, 2003).

[4] = biological target: T1, mouse EphB4 ectodomain Fc fusion …; test: competition ELISA: inhibition of mouse ephrin-B2 AP binding to immobilized mouse EphB4 ectodomain Fc; text sentence that cites Table 1A; same ELISA
Description: as §1

[5] = biological target: T2, human EphB4 ephrin-binding domain, …; test: ITC at 25 °C, 1.45 mM peptide injected into 30 µM human EphB4 (17-196)
Description: as §2, §3

Binder	IC50 [1] [nM]	fold reduction in affinity (against the peptides that keep Tyr-P3) [2] [fold]	Kd [3] [nM]	TΔS [3] [kcal/mol]	ΔG [3] [kcal/mol]	ΔH [3] [kcal/mol]	IC50 [4] [nM]	ΔH [5] [kcal/mol]
B1	~15000	40	3500	2.1	-7.4	-5.3		
B2	15		71	-4.9	-9.8	-14.7	~15	
TNYLFSPNGPIA [TNYL peptide (TNYLFSPNGPIA)]	150000							-9.6
